Read-outs that look alike come from different tables or passages of the source.
Columns and labels:
[1] = tested on: Immunoglobulin E (human myeloma IgE) (Homo sapiens); details: nominal Kd, no asymptote reached; described as negligible binding; fluorescence bead binding assay
[2] = tested on: Immunoglobulin E (human myeloma IgE) (Homo sapiens); details: fluorescence bead binding assay, 30 min incubation, wash, thermal elution at 95 C; monovalent binding assumed; enriched pool, individual sequences not given

Sequence	Kd [1] [nM]	Kd [2] [nM]
GCCTGTTGTGAGCCTCCTGTCGAANNNNNNNNNNNNNNNNNNNNNNNNNNNNNNNNNNNNNNNNNNNNNTTGAGCGTTTATTCTTGTCTCCC [randomized 45N library]	620	
GCCTGTTGTGAGCCTCCTGTCGAANNNNNNNNNNNNNNNNNNNNNNNNNNNNNNNNNNNNNNNNNNNNNTTGAGCGTTTATTCTTGTCTCCC [round-4 enriched IgE aptamer pool]		12
